This is an account of results in paper doi:10.1101/600387.

The target in the assay is Sulfolobus acidocaldarius R2-like ligand-binding oxidase (Sulfolobus acidocaldarius). As to the kind of experiment: crystal structure.

The term stoichiometry N denotes a count of units in the complex or per binding partner.

In the case of “Sulfolobus acidocaldarius R2-like ligand-binding oxidase (enzyme)”, the stoichiometry N is 2.
